Assays:
[1] = biological target: HER-2 protein (also designated neu and erbB-2), endogenous in human MDA-MB-468 cells (human) (UniProt P04626); assay: FACS, MDA-MB-468 cells, irrelevant IgG2b control at 1/100, Alexa Fluor 488 secondary; background
[2] = biological target: HER-2 protein (also designated neu and erbB-2), endogenous in human MDA-MB-468 cells (human) (UniProt P04626); assay: FACS, fixed and permeabilized parental MDA-MB-468 cells, antibody at 1/100, Alexa Fluor 488 secondary

Row | Substance | Geometric mean Fluorescence [1] | Mean Fluorescence [1] | Geometric mean Fluorescence [2] | Mean Fluorescence [2] | Median Fluorescence [2]
1 | irrelevant primary antibody MART-1, an IgG2b antibody (NeoMarkers) | 122 | 137 | – | – | –
2 | mouse Anti-erbB2 monoclonal antibody (Transduction Laboratories, Cat. No. E19420, an IgG2b isotype) | – | – | 1090 | 1220 | 1180
